From patent publication US20130177500A1 (TRUSTEES OF BOSTON UNIVERSITY, published 2013)
Each block holds one molecule with its values, some of them ahead of it.

Key:
[1] = target: T1, human dual endothelin-1/VEGF signal peptide receptor (hDEspR), on cells and tissue (human) (UniProt B0L3A2); test: cell-based or functional assay
T1 sequence: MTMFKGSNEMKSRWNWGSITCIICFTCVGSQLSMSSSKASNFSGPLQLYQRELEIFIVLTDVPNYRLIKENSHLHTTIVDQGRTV

[2] = target: T1, human dual endothelin-1/VEGF signal peptide receptor (hDEspR), on cells and tissue (human); test: isotype-antibody microbubbles on HUVECs, 800× MB:cell ratio, microscopy (negative control)
[3] = target: T2, human dual endothelin-1/VEGF signal peptide receptor (hDEspR), on cells and tissue (human, UniProt B0L3A2 1-85); test: cell-based or functional assay
T2 sequence: T1 sequence

[4] = target: T3, antigenic hDEspR 9-aa peptide (NH2-terminal 9 amino acids of hDEspR) (human); test: indirect ELISA on the plate-coated antigenic 9-aa hDEspR peptide; two-fold serial dilutions of hybridoma supernatant holding mAb at 1 µg/ml (1 = 1/2 ... 12 = 1/4096); OD450
T3 construct: Free, unconjugated peptide coated on ELISA wells; The KLH conjugate was used only for immunisation; also called DEspR(1-9); free antigenic peptide
T3 peptide: MTMFKGSNE

% CFC, BRCA1 S1497 (Kinex antibody microarray, 30 min, 10 nM ligand) [1]: 32 % CFC
% CFC, CDK1/2 T14/Y15 (Kinex antibody microarray, 30 min, 10 nM ligand) [1]: 53 % CFC
% CFC, CDK1/2 Y15 (Kinex antibody microarray, 30 min, 10 nM ligand) [1]: 281 % CFC
% CFC, ERK1/2 T202 + Y204; T185 + Y187 (Kinex antibody microarray, 30 min, 10 nM ligand) [1]: 135 % CFC
% CFC, FAK Panspecific (Kinex antibody microarray, 30 min, 10 nM ligand) [1]: 205 % CFC
% CFC, FAK S722 (Kinex antibody microarray, 30 min, 10 nM ligand) [1]: 55 % CFC
% CFC, FAK S732 (Kinex antibody microarray, 30 min, 10 nM ligand) [1]: 62 % CFC
% CFC, Met Panspecific (Kinex antibody microarray, 30 min, 10 nM ligand) [1]: 384 % CFC
% CFC, PCNA Panspecific (Kinex antibody microarray, 30 min, 10 nM ligand) [1]: -47 % CFC
% CFC, PKCa T638/T641 (Kinex antibody microarray, 30 min, 10 nM ligand) [1]: 137 % CFC
% CFC, PKCe Panspecific (Kinex antibody microarray, 30 min, 10 nM ligand) [1]: 103 % CFC
% CFC, Raf1 S259 (Kinex antibody microarray, 30 min, 10 nM ligand) [1]: 12 % CFC
% CFC, SHP2 S576 (Kinex antibody microarray, 30 min, 10 nM ligand) [1]: 14 % CFC
% CFC, STAT1 S727 (Kinex antibody microarray, 30 min, 10 nM ligand) [1]: 86 % CFC
% CFC, STAT1 Y701 (Kinex antibody microarray, 30 min, 10 nM ligand) [1]: 95 % CFC
% CFC, STAT3 S727 (Kinex antibody microarray, 30 min, 10 nM ligand) [1]: 133 % CFC
% CFC, Shc1 or ShcA Y349, Y350 (Kinex antibody microarray, 30 min, 10 nM ligand) [1]: 9 % CFC
% CFC, Smad 1/5/9 S463 + S465/S465 + S467 (Kinex antibody microarray, 30 min, 10 nM ligand) [1]: 18 % CFC
% CFC, Src Y418 (Kinex antibody microarray, 30 min, 10 nM ligand) [1]: -11 % CFC
% CFC, Src Y529 (Kinex antibody microarray, 30 min, 10 nM ligand) [1]: -20 % CFC
Molecule: endothelin-1 (from UniProt P05305 53-73) (ligand)

% of HUVECs with bound MBs [2]: 6.8%
Molecule: isotype-antibody control microbubbles (MBC)

EC50, inhibition of MDA-MB-231 tumor cell invasiveness (Matrigel invasion assay) [3]: 3.55 nM
EC50, inhibition of total tube length per well (HUVEC tube formation assay) [3]: 4.34 nM
binding result [4]: binds
B1: anti-hDEspR 7C5B2 monoclonal antibody (antibody, IgG2b, V domains shown)
VH: QVQLKESGPGLVAPSQSLSITCTVSGFSLTSYDISWIRQPPGKGLEWLGVIWTGGGTNYNSAFMSRLSISKDNSKSQVFLKMNSLQTDDTAIYYCVRDRDYDGWYFDVWGAGTTVTVSS
VL: DVLMTQTPLSLPVSLGDQASISCRSSQSIVHSNGNTYLEWYLQKPGQSPKLLIYKVSNRFSGVPDRFSGSGSGTDFTLKISRVEAEDLGVYYCFQGSHVPYTFGGGTKLEIK
notes: Tested as hybridoma supernatant and as purified antibody; also called 7C5B2 antibody; 7C5B2 anti-DEspR antibody
